Publication PMC4433238
Numbering of substitutions follows the chain as printed.

Experiments:
Assay in all cases: EMSA
BcAlkD (Bacillus cereus) = molecular target: T1, BcAlkD (Bacillus cereus) (UniProt Q2PAD8); conditions: EMSA: 100 pM 32P-DNA, 0-50 uM protein, 20 mM Tris-HCl pH 7.5, 100 mM NaCl, 5% glycerol, 2 mM DTT, 0.1 mM EDTA, 0.1 mg/mL BSA, 20 C, 30 min; 5% native gel
T1 sequence: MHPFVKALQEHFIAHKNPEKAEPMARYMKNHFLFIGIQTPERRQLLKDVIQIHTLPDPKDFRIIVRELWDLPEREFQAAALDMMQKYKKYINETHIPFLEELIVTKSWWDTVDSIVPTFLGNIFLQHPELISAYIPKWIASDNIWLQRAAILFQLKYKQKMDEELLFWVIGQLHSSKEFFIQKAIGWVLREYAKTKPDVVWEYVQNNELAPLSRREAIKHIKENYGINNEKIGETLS

[1] = molecular target: T2, SmAlkD2 (Streptococcus mutans Clarke (ATCC 25175)) (UniProt A0A0M3KL00); conditions: EMSA: 100 pM 32P-DNA, 0-50 uM protein, 20 mM Tris-HCl pH 7.5, 100 mM NaCl, 5% glycerol, 2 mM DTT, 0.1 mM EDTA, 0.1 mg/mL BSA, 20 C, 30 min, 5% native gel
T2 sequence: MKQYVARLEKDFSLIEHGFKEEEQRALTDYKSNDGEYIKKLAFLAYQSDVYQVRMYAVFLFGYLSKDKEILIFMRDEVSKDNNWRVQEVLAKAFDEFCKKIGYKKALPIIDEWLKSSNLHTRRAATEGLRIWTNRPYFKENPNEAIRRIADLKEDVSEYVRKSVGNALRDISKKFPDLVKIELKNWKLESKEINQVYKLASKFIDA

[2] = molecular target: T3, BcAlkD-K29A K29A (Bacillus cereus) (UniProt Q2PAD8); conditions: N13 of strand 1 = tetrahydrofuran (THF) abasic site mimetic; EMSA: 100 pM 32P-DNA, 0-50 uM protein, 20 mM Tris-HCl pH 7.5, 100 mM NaCl, 5% glycerol, 2 mM DTT, 0.1 mM EDTA, 0.1 mg/mL BSA, 20 C, 30 min; 5% native gel
T3 sequence: T1 sequence with K29A

## GACCACTACACCGATTCCTTACAAC (double strand) [G•C-DNA 25-mer]
BcAlkD (Bacillus cereus)
  Kd: 19 µM
[1]
  Kd: 67 µM

## GACCACTACACCGATTCCTTACAAC / GTTGTAAGGAATTGGTGTAGTGGTC [G•T-DNA 25-mer]
[1]; G13•T13 mismatch
  Kd: 52 µM

## GACCACTACACCNATTCCTTACAAC / GTTGTAAGGAATCGGTGTAGTGGTC [THF•C-DNA 25-mer]
[2]
  binding signal (fold lower affinity than WT): > 10000
[1]; N13 of strand 1 = tetrahydrofuran (THF) abasic site mimetic
  Kd: 3.4 µM
